Experimental data from patent US20100074886A1, “CCR2 ANTAGONISTS FOR TREATMENT OF FIBROSIS” (priority 2006, published 2010).

Target: Human MCP-1 (CCL2), monocyte chemoattractant protein 1 (human), P13500
Experiment: cell-based or functional assay

Chain of Human MCP-1 (CCL2), monocyte chemoattractant protein 1 (human), P13500 (P13500 24-99): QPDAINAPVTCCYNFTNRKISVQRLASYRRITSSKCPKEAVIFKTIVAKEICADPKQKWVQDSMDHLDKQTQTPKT

B1: CCL2-neutralizing antibody CNTO888 (antibody, V domains shown)
VH: QVQLVQSGAEVKKPGSSVKVSCKASGGTFSSYGISWVRQAPGQGLEWMGGIIPIFGTANYAQKFQGRVTITADESTSTAYMELSSLRSEDTAVYYCARYDGIYGELDFWGQGTLVTVSS
VL: not shown
modifications: not checked
  CCL2 gene expression in fibrotic cell line 126, percent of untreated cell level (percent of untreated cell level): 2
  CXCL5 gene expression in fibrotic cell line 126, percent of untreated cell level (percent of untreated cell level): < 1
  CXCL5 protein level in supernatant of fibrotic cell line 126 with Anti-CCL2: 32
  CXCL5 protein, percent of untreated (percent of untreated): < 1
  G-CSF protein level in supernatant of fibrotic cell line 126 with Anti-CCL2: 1
  G-CSF protein, percent of untreated (percent of untreated): < 1
  IL6 gene expression in fibrotic cell line 126, percent of untreated cell level (percent of untreated cell level): < 1
  IL6 protein level in supernatant of fibrotic cell line 126 with Anti-CCL2: 40
  IL6 protein, percent of untreated (percent of untreated): < 1
  IL8 protein level in supernatant of fibrotic cell line 126 with Anti-CCL2: 308
  IL8 protein, percent of untreated (percent of untreated): 2
  IL13Ra2 gene expression in fibrotic cell line 126, percent of untreated cell level (percent of untreated cell level): 5
  VEGF protein level in supernatant of fibrotic cell line 126 with Anti-CCL2: 175
  VEGF protein, percent of untreated (percent of untreated): 23
  fold reduction of G-CSF protein with CNTO 888: 6800 fold
  fold reduction of VEGF protein with CNTO 888: 4 fold
